Assay results from paper PMC5821319.

B1: MeV-H genotype A (measles virus envelope hemagglutinin protein): N200D (protein)
parent chain: MSPQRDRINAFYKDNPHPKGSRIVINREHLMIDRPYVLLAVLFVMFLSLIGLLAIAGIRLHRAAIYTAEIHKSLSTNLDVTNSIEHQVKDVLTPLFKIIGDEVGLRTPQRFTDLVKLISDKIKFLNPDREYDFRDLTWCINPPERIKLDYDQYCADVAAEELMNALVNSTLLETRTTNQFLAVSKGNCSGPTTIRGQFSNMSLSLLDLYLGRGYNVSSIVTMTSQGMYGGTYLVEKPNLSSKRSELSQLSMYRVFEVGVIRNPGLGAPVFHMTNYLEQPVSNDLSNCMVALGELKLAALCHGEDSITIPYQGSGKGVSFQLVKLGVWKSPTDMQSWVPLSTDDPVIDRLYLSSHRGVIADNQAKWAVPTTRTDDKLRMETCFQQACKGKIQALCENPEWAPLKDNRIPSYGVLSVDLSLTVELKIKIASGFGPLITHGSGMDLYKSNHNNVYWLTIPPMKNLALGVINTLEWIPRFKVSPYLFTVPIKEAGEDCHAPTYLPAEVDGDVKLSSNLVILPGQDLQYVLATYDTSRVEHAVVYYVYSPSRSFSYFYPFRLPIKGVPIELQVECFTWDQKLWCRHFCVLADSESGGHITHSGMVGMGVSCTVTREDGTNRR
B2: MeV-H genotype A (measles virus envelope hemagglutinin protein): D416N (protein)
parent chain: B1 parent chain

Legend:
[1] = cell surface flow cytometry, mAb BH026, Expi293; conditions: control: unmutated MeV-H genotype A
[2] = Western blot of transfected Vero cell lysates (total); conditions: control: unmutated MeV-H genotype A

Protein | expression_or_secretion ([1]; glycan lost) | expression_or_secretion ([2]; glycan lost) | expression_or_secretion ([1]; glycan gained) | expression_or_secretion ([2]; glycan gained)
B1 | decreases | decreases |  | 
B2 |  |  | no change | no change
